Assay results as given in IntAct's records for PubMed 12163175.

B1: Protein ROG3 (Saccharomyces cerevisiae), P43602 (parent)
chain: MGFSSGKSTKKKPLLFDIRLKNVDNDVILLKGPPNEAPSVLLSGCIVLSINEPMQIKSISLRLYGKIQIDVPLERPQDASSSSLSSSPPKIRKYNKVFYNYAWDNVNLKEYLSGLRGQSGLAGSSSSSNILGTRQRAQSTSSLKSLKGSSSPSSCTLDKGNYDFPFSAILPGSLPESVESLPNCFVTYSMESVIERSKNYSDLICRKNIRVLRTISPAAVELSETVCVDNSWPDKVDYSISVPNKAVAIGSATPINISIVPLSKGLKLGSIKVVLFENYQYCDPFPPVISENRQVTELNLEDPLNESSGEFNGNGCFVNNPFFQPDHSFQDKWEIDTILQIPNSLSNCVQDCDVRSNIKVRHKLKFFIILINPDGHKSELRASLPIQLFISPFVALSIKPLSSSNLYSLFSTTNQKDENSSQEEEEEYLFSRSASVTGLELLADMRSGGSVPTISDLMTPPNYEMHVYDRLYSGSFTRTAVETSGTCTPLGSECSTVEDQQQDLEDLRIRLTKIRNQRDNLGLPPSASSAAASRSLSPLLNVPAPEDGTERILPQSALGPNSGSVPGVHSNVSPVLLSRSPAPSVSAHEVLPVPSGLNYPETQNLNKVPSYGKAMKYDIIGEDLPPSYPCAIQNVQPRKPSRVHSRNSSTTLSSSIPTSFHSSSFMSSTASPISIINGSRSSSSGVSLNTLNELTSKTSNNPSSNSMKRSPTRRRATSLAGFMGGFLSKGNKR
B2: Protein ROD1 (Saccharomyces cerevisiae), Q02805 (parent)
chain: MFSSSSRPSKEPLLFDIRLRNLDNDVLLIKGPPDEASSVLLSGTIVLSITEPIQIKSLALRLFGRLRLNIPTVLQTVHGPHKRYSKFERNIYSHFWDDFNIKSYFQNLYDNHNNGKITISSKSSTNLAALPKRKRALSTASLISSNGQTSASKNYHTLVKGNYEFPFSAIIPGSLVESVEGLPNAAVTYALEATIERPKQPDLICKKHLRVIRTLAIDAVELSETVSVDNSWPEKVDYTISIPTKAIAIGSSTMINILIVPILKGLKLGPVRISLVENSQYCGSYGGVINQERMVAKLKLKDPLKHVAQIKKKRSLNEAADEGVDTDTGEFQDKWEVRALLNIPASLTKCSQDCRILSNIKVRHKIKFTISLLNPDGHISELRAALPVQLFISPFVPVNVKTSDVIERTLKTFGPSYQVTSQHDNSFSSKNFVDDSEEDVIFQRSASALQLSSMPTIVSGSTLNINSTDAEATAVADTTMVTSLMVPPNYGNHVYDRVYGEVTNEDETSASASSSAVESQAIHNIQNLYISDSNNSNNPILAPNPQIKIEDDSLNNCDSRGDSVNNSNLNLVNSNLTISENWNNNSPSANRYNNIINAGLNSPSLTPSFAHLSRRNSYSRQTSSTSLKNDLELTDLSRVPSYDKAMKSDMIGEDLPPAYPEEELGVQENKKIELERPQILHHKSTSSLLPLPGSSKSSNNLKRSSSRTHLSHSPLPRNNSGSSVSLQQLARNNTDSSFNLNLSFTSAKSSTGSRHFPFNMTTSFTSNSSSKNNSHFDKTDSTSDANKPREEENYTSATHNRRSRSSSVRSNNSNSPLRQGTGSFANLMEMFTKRDRS

Variants of: B1
Settings: with rsp5_yeast RSP5, P39940
Target sequence in this assay (P39940 whole entry): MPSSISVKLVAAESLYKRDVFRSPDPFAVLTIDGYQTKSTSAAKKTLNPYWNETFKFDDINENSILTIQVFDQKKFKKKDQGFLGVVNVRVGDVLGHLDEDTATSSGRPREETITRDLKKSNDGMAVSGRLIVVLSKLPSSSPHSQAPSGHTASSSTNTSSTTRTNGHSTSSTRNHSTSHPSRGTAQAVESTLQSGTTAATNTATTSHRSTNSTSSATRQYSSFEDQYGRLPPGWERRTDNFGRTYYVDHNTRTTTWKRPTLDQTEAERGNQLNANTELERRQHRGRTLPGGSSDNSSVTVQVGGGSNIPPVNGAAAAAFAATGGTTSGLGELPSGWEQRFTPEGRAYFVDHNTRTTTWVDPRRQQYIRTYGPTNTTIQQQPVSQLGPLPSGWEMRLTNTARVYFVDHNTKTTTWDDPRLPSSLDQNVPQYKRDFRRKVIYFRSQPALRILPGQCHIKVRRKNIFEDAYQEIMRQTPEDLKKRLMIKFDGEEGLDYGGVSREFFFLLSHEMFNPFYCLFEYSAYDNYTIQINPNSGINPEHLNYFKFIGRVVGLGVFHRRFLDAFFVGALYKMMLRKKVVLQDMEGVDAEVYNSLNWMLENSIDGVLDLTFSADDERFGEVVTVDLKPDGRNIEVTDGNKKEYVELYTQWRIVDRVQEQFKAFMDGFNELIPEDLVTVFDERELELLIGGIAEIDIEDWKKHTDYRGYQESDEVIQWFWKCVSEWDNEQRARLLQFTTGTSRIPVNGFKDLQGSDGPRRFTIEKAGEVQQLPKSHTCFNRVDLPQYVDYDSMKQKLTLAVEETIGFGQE

effect of a mutation on the interaction | Variant
disrupting interaction | C487Q;T488A

Variants of: B2
Settings: with rsp5_yeast RSP5, P39940
Target sequence in this assay (P39940 whole entry): as above

effect of a mutation on the interaction | Variant
disrupting interaction | P487Q;P488A
